Patent US20250262210A1 (TRUSTEES OF COLUMBIA UNIVERSITY IN THE CITY OF NEW YORK, published 2025)

How the values were obtained:
ATAD2 = molecular target: T1, ATAD2 (human, UniProt Q6PL18 1-1390, limits assumed); experiment: IP/MS, LZTR1 R810W-FLAG, U87
T1 sequence (looked up): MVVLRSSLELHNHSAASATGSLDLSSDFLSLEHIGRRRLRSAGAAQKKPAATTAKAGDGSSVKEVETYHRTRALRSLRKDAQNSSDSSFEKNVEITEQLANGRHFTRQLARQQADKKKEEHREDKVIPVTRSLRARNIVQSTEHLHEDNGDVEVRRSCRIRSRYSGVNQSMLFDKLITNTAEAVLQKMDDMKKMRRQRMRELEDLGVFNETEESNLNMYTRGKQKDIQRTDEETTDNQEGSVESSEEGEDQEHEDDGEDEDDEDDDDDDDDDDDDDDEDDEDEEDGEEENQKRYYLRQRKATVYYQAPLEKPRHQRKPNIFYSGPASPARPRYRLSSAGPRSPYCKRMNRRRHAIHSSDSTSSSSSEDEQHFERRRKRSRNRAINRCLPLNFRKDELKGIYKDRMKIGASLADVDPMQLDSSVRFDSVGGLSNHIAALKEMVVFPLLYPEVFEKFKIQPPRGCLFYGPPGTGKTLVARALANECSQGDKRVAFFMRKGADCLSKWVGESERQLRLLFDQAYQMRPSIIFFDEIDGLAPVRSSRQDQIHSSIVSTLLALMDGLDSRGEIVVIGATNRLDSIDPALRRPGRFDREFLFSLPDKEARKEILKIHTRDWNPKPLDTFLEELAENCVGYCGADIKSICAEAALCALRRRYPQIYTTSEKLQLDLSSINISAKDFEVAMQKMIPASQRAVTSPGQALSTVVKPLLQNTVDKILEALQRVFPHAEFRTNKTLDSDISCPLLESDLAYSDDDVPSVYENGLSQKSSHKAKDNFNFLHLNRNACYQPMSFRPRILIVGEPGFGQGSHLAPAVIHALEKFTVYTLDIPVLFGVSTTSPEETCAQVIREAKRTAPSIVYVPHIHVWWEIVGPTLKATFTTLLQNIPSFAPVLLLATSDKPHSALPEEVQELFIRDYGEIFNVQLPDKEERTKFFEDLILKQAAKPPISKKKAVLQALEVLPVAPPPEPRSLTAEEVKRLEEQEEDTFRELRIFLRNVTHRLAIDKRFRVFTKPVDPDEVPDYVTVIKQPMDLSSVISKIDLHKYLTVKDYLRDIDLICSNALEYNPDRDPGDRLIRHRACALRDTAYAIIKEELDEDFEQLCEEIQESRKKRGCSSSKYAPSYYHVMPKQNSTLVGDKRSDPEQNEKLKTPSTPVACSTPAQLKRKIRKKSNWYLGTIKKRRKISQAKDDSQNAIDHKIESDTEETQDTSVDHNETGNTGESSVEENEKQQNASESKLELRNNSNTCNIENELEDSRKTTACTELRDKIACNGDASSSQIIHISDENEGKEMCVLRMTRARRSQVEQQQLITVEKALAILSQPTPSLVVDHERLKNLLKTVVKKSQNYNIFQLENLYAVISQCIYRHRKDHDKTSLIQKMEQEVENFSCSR
Summary of the method: (§1)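 Read-out: spectral counts from LC-MS/MS (Orbitrap Fusion) after MaxQuant identification. Variable modifications were Met oxidation, protein N-terminal acetylation and N/Q deamidation.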

SNX14 = molecular target: T2, SNX14 (human, UniProt Q9Y5W7 1-946, limits assumed); experiment: IP/MS, LZTR1 R810W-FLAG, U87
T2 sequence (looked up): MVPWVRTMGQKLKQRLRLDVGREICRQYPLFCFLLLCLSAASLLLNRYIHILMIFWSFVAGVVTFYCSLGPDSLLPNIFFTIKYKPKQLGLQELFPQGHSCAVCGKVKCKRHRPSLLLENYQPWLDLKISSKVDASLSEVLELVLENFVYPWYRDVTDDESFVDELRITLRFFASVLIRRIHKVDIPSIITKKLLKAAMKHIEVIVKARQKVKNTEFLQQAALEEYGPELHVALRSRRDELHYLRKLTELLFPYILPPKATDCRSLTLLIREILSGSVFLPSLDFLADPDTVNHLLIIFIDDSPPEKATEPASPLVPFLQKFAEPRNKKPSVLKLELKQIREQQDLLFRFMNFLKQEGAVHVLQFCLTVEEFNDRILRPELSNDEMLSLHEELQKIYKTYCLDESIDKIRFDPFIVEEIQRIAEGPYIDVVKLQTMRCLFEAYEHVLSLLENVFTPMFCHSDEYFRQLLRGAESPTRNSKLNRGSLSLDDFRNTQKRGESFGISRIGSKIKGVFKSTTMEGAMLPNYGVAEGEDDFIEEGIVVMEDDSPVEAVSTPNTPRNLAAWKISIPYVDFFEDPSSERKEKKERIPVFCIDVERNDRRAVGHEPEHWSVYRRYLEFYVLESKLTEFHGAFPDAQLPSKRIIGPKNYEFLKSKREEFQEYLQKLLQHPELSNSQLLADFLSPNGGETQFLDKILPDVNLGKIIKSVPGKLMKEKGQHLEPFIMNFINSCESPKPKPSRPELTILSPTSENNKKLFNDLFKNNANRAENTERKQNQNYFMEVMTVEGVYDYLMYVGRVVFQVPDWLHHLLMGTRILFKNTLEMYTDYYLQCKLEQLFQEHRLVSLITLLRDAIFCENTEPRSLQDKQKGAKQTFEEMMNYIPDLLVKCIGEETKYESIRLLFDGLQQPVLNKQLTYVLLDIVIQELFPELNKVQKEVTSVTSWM
Summary of the method: as §1

B1: LZTR1 R810W-FLAG (other, human, UniProt Q8N653 1-840, looked up)
chain: MAGPGSTGGQIGAAALAGGARSKVAPSVDFDHSCSDSVEYLTLNFGPFETVHRWRRLPPCDEFVGARRSKHTVVAYKDAIYVFGGDNGKTMLNDLLRFDVKDCSWCRAFTTGTPPAPRYHHSAVVYGSSMFVFGGYTGDIYSNSNLKNKNDLFEYKFATGQWTEWKIEGRLPVARSAHGATVYSDKLWIFAGYDGNARLNDMWTIGLQDRELTCWEEVAQSGEIPPSCCNFPVAVCRDKMFVFSGQSGAKITNNLFQFEFKDKTWTRIPTEHLLRGSPPPPQRRYGHTMVAFDRHLYVFGGAADNTLPNELHCYDVDFQTWEVVQPSSDSEVGGAEVPERACASEEVPTLTYEERVGFKKSRDVFGLDFGTTSAKQPTQPASELPSGRLFHAAAVISDAMYIFGGTVDNNIRSGEMYRFQFSCYPKCTLHEDYGRLWESRQFCDVEFVLGEKEECVQGHVAIVTARSRWLRRKITQARERLAQKLEQEAAPVPREAPGVAAGGARPPLLHVAIREAEARPFEVLMQFLYTDKIKYPRKGHVEDVLLIMDVYKLALSFQLCRLEQLCRQYIEASVDLQNVLVVCESAARLQLSQLKEHCLNFVVKESHFNQVIMMKEFERLSSPLIVEIVRRKQQPPPRTPLDQPVDIGTSLIQDMKAYLEGAGAEFCDITLLLDGHPRPAHKAILAARSSYFEAMFRSFMPEDGQVNISIGEMVPSRQAFESMLRYIYYGEVNMPPEDSLYLFAAPYYYGFYNNRLQAYCKQNLEMNVTVQNVLQILEAADKTQALDMKRHCLHIIVHQFTKVSKLPTLWSLSQQLLLDIIDSLASHISDKQCAELGADI
notes: Stably expressed in U87 cells by lentivirus; also called LZTR1-FLAG-R810W; LZTR1 RW; not shown: FLAG tag
**Q.** Does B1 bind (ATAD2)?
**A.** binds

**Q.** Does B1 bind (SNX14)?
**A.** binds
